In test [1] the target is recombinant human IL-31 (C108S), produced in E. coli by ZymoGenetics, MW 18 kDa (human), Q6EBC2. In words: cell-based or functional assay.
In test [2] the target is T1, recombinant human IL-31 (hIL-31, BHK produced, A1277F, zcytor17lig CEE) (human, UniProt Q6EBC2 24-164).
T1 construct: also called recombinant hIL-31
T1 sequence: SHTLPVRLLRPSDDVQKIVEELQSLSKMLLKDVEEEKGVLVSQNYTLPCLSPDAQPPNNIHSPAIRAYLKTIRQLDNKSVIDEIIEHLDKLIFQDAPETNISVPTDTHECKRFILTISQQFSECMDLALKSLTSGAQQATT
In words: SPR (Biacore), against parent 292.12.3.1. How it is done: (§1) The purified monoclonal antibodies were immobilized in individual flow cells on a CM5 type sensor chip. Immobilizations were performed using a standard amine coupling procedure, aiming for an immobilization level of 500 Resonance Units (RU). The antibodies were diluted to 1-5 ug/ml in 10 mM NaAc pH 4.5.
(§2) HPS-EP pH 7.4 (10 mM HEPES, 150 mM NaCl, 3 mM EDTA and 0.005% Polysorbat P20) was used as running buffer, and diluents for the recombinant hIL-31 (hIL-31, BHK produced, A1277F, zcytor17lig CEE). The hIL-31 was tested in a 3-fold dilution series from 333.3 nM to 1.4 nM. Association (injection) was 4 min., followed by a 20 min. dissociation (wash) period. Flow rate was 50 ul/min. Experiments were performed at 25OC. Regeneration of the surface was accomplished by injection of 30 sec. pulse of 10 mM Glycin-HCl pH 1.8 or 1M formic acid, at a 30 ul/min flow rate. Detection in all flow cells simultaneously. Flow cell #1 contained no immobilized antibody, and was used for subtraction of background and bulk.
(§3) The kinetic parameters were calculated by global fitting of the data using a 1:1 langmuir binding model. Data was inspected for mass-transport limitations prior to calculation of the kinetic parameters. In some experiments the Rmax was fitted locally, and the RI constant at 0.
For orientation: Surface plasmon resonance follows binding to a sensor surface in real time, without labels.

The target in test [3] is T2, recombinant human IL-31 (as used in the NHK STAT3 phosphorylation assay of Example 5) (human, UniProt Q6EBC2 24-164, limits assumed).
T2 sequence: T1 sequence
In words: cell-based or functional assay.

Test [4] addresses T1, recombinant human IL-31 (hIL-31, BHK …). In words: SPR (Biacore), mAb amine-coupled to CM5 chip, hIL-31 injected. How it is done: as §1, §2, §3

Numbering of substitutions follows the chain as printed. Names and notes keep the numbering of the source.

B1: humanized 292.12.3.1 construct clone 33 (12VH1(germ)-gly + fback) (antibody, human IgG4, V domains shown)
VH: QVQLVQSGAEVKKPGASVKVSCKASGYTLTRYWMQWVRQAPGQGLEWMGAIYPGDGDTRYSQKFQGRVTLTADKSTSTAYMELSSLRSEDTAVYYCAFPDGYYAAPYGMDYWGQGTLVTVSS
VL: DIQMTQSPSSLSASVGDRVTITCRASGNIHNYLAWYQQKPGKVPKLLIYNAKTLADGVPSRFSGSRSETQYSLTISSLQPEDVATYYCQHFWSTPWTFGQGTKVEIKR
For the molecule B1, in test [1], the Average Fold loss in potency relative to 292.12.3.1, BAF-3(hIL-31R) proliferation assay was found to be 2.3 fold and the Average Potency (IC50), inhibition of hIL-31-induced proliferation of BAF-3(hIL-31R) cells worked out at 3.1 nM. The “Relative potency loss (KD)” value in test [2] was ~0.6 x to parent. In addition, in test [3], the “IC50, IL-31-induced STAT3 phosphorylation in NHK, Exp 8” value came out at 4.08 nM; the “IC50, IL-31-induced STAT3 phosphorylation in NHK, Exp 9” value stood at 5.68 nM; the “IC50, IL-31-induced STAT3 phosphorylation in NHK, Exp 10” value (“IC50 … Exp 10” for short) is 13.6 nM. For the same molecule, in test [4], the Kd (usually the equilibrium constant for the complex coming apart) came out at 1.3 nM; the koff (as a rule, the first-order rate constant of dissociation) stood at 6.8e-05 s⁻¹; the kon – broadly, the rate constant with which the complex forms – is 52000 M⁻¹ s⁻¹.

B2: humanized 292.12.3.1 construct clone 35 (12VH1-gly + HC(F29L, R94F)) (antibody, human IgG4, V domains shown)
VH: B1 VH with L70M, A72R, K74T, T76I, A79V
VL: B1 VL with R66G, E68G, Q70D, Y71F, S72T
On to B2, for which, in test [1], the Average Fold loss in potency relative to 292.12.3.1, BAF-3(hIL-31R) proliferation assay came to 75.1 fold and the Average Potency (IC50), inhibition of hIL-31-induced proliferation of BAF-3(hIL-31R) cells was found to be 62.1 nM. In test [2], the “Relative potency loss (KD)” value was ~0.7 x to parent and the “Relative potency loss (kd)” value was ~1.5 x to parent. Also, the “IC50 … Exp 10” value in test [3] was determined as 12 nM. In addition, in test [4], the Kd amounted to 1.6 nM, the koff stood at 0.0001 s⁻¹ and the kon was 64000 M⁻¹ s⁻¹.

B3: humanized 292.12.3.1 construct clone 36 (12VH1(germ)-gly + HC(F29L, T73K, R94F) + LC(F71Y)) (antibody, human IgG4, V domains shown)
VH: B1 VH with L70M, A72R, A79V
VL: B1 VL with R66G, E68G, Q70D, S72T
On to B3, for which, in test [1], the Average Potency (IC50), inhibition of hIL-31-induced proliferation of BAF-3(hIL-31R) cells stood at 14.1 nM. Also, in test [2], the “Relative potency loss (KD)” value was ~0.5 x to parent and the “Relative potency loss (kd)” value is ~1.5 x to parent. Moreover, the “IC50 … Exp 10” value in test [3] came out at 8.95 nM. Further, in test [4], the Kd turned out to be 1.6 nM, the koff was 0.000108 s⁻¹ and the association rate constant (kon) is 68000 M⁻¹ s⁻¹.

Values taken from US20200262913A1 (ZymoGenetics, published 2020).
